This note sets out measurements from patent publication US20170290877A1.

For the test, the target named is JNK in primary mouse cortical neurons. Nature of the test: cell-based or functional assay.

Non-standard residues stand in square brackets, D forms with d. No end group written: not given here.

Regarding [dD][dQ][dS][dR][dP][dV][dQ][dP][dF][dL][dN][dL][dT][dT][dP][dR][dK][dP][dR][dP][dP][dR][dR][dR][dQ][dR][dR][dK][dK][dR]G [D-TAT-IB1(s)], the JNK activation in Aβ42-stressed PKR-/- neurons (immunoblot), XG-102 at 10 µM was -35%; the JNK activity as ratio pJNK/JNK after 1 mM H2O2 (immunoblot), XG-102 at 10 µM (% of controls) was 45; the c-Jun phosphorylation in Aβ42-stressed WT neurons (immunoblot), XG-102 at 10 µM is -74%.
